# Reference: patent publication US20220227830A1, “QD DOSING OF GIP RECEPTOR AGONIST PEPTIDE COMPOUNDS AND USES THEREOF” (Takeda Pharmaceutical Company Limited, priority 2020, published 2022)
# Starred links: 1 amine or outer side, 2 acyl side, 3 side chain; linkers in the order of their positions; H or OH if unused. Non-standard residues stand in square brackets, D forms with d. Groups on a side chain read outwards from the residue. No end group written: not given here. *: point of attachment. G2E3 = linker of 2 Gly and 3 Glu (read GGEEE); C15 diacid = O=C(O)CCCCCCCCCCCCCC(=O)*; γGlu = O=C(O)[C@H](CCC(=O)[*:2])N[*:1]; NMeY = CN[C@@H](Cc1ccc(O)cc1)C(=O)O; AEEA = NCCOCCOCC(=O)O; Aib = CC(C)(N)C(=O)O
# T1: full-length human GIPR with an N-terminal FLAG tag (human, UniProt P48546 22-466)
# T1 sequence (looked up): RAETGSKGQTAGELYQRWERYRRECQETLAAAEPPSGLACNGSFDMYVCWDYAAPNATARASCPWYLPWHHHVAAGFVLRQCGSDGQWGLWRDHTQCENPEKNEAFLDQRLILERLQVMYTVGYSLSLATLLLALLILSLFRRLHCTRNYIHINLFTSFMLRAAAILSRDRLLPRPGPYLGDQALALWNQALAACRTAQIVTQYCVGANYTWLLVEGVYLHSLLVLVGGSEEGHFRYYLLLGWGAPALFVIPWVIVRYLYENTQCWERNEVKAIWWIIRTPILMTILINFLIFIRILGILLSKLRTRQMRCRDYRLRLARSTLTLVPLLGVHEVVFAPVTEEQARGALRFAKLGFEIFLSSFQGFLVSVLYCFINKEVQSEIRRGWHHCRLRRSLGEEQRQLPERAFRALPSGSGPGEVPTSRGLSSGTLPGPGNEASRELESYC
# T2: full-length human GIPR with an N-terminal FLAG tag, overexpressed on HEK-293T cells (human, UniProt P48546 22-466)
# T2 sequence (looked up): T1 sequence (looked up)
# B1: Compound 28 (peptide)
# peptide: [NMeY][Aib]EGTFISDYSIAK([AEEA-γGlu-γGlu-γGlu-C15 diacid])DR[Aib]AQ[Aib]NFVNWLL[Aib]QK-NH2
# modifications: N-terminus assumed
# SMILES: CC[C@H](C)[C@H](NC(=O)[C@H](CO)NC(=O)[C@H](Cc1ccc(O)cc1)NC(=O)[C@H](CC(=O)O)NC(=O)[C@H](CO)NC(=O)[C@@H](NC(=O)[C@H](Cc1ccccc1)NC(=O)[C@@H](NC(=O)CNC(=O)[C@H](CCC(=O)O)NC(=O)C(C)(C)NC(=O)[C@H](Cc1ccc(O)cc1)NC)[C@@H](C)O)[C@@H](C)CC)C(=O)N[C@@H](C)C(=O)N[C@@H](CCCCNC(=O)COCCOCCNC(=O)CC[C@H](NC(=O)CC[C@H](NC(=O)CC[C@H](NC(=O)CCCCCCCCCCCCCC(=O)O)C(=O)O)C(=O)O)C(=O)O)C(=O)N[C@@H](CC(=O)O)C(=O)N[C@@H](CCCNC(=N)N)C(=O)NC(C)(C)C(=O)N[C@@H](C)C(=O)N[C@@H](CCC(N)=O)C(=O)NC(C)(C)C(=O)N[C@@H](CC(N)=O)C(=O)N[C@@H](Cc1ccccc1)C(=O)N[C@H](C(=O)N[C@@H](CC(N)=O)C(=O)N[C@@H](Cc1c[nH]c2ccccc12)C(=O)N[C@@H](CC(C)C)C(=O)N[C@@H](CC(C)C)C(=O)NC(C)(C)C(=O)N[C@@H](CCC(N)=O)C(=O)N[C@@H](CCCCN)C(N)=O)C(C)C
# B2: Compound 41 (peptide)
# peptide: Y[Aib]EGTFISDYSIALDR[Aib]AQ[Aib]NFVNWLLAQK([G2E3-C15 diacid])
# modifications: not fully specified (residue 1, N-terminus); also: Me-Tyr methyl position not given here
# B3: Compound 36 (peptide)
# peptide: YXEGTFISDYSIALDKXHQXDFVNWLLAXK
# modifications: not fully specified; Me-Tyr1; Aib 2,17,20; Km29 = Lys(2OEGgE-C15DA); position 21 printed 'O' in Table 3; C-term OH
# B4: Compound 27 (peptide)
# peptide: [NMeY][Aib]EGTFISDYSIALDR[Aib]AQ[Aib]K([AEEA-AEEA-γGlu-γGlu-C15 diacid])FVNWLLAQK-OH
# modifications: N-terminus assumed
# SMILES: CC[C@H](C)[C@H](NC(=O)[C@H](CO)NC(=O)[C@H](Cc1ccc(O)cc1)NC(=O)[C@H](CC(=O)O)NC(=O)[C@H](CO)NC(=O)[C@@H](NC(=O)[C@H](Cc1ccccc1)NC(=O)[C@@H](NC(=O)CNC(=O)[C@H](CCC(=O)O)NC(=O)C(C)(C)NC(=O)[C@H](Cc1ccc(O)cc1)NC)[C@@H](C)O)[C@@H](C)CC)C(=O)N[C@@H](C)C(=O)N[C@@H](CC(C)C)C(=O)N[C@@H](CC(=O)O)C(=O)N[C@@H](CCCNC(=N)N)C(=O)NC(C)(C)C(=O)N[C@@H](C)C(=O)N[C@@H](CCC(N)=O)C(=O)NC(C)(C)C(=O)N[C@@H](CCCCNC(=O)COCCOCCNC(=O)COCCOCCNC(=O)CC[C@H](NC(=O)CC[C@H](NC(=O)CCCCCCCCCCCCCC(=O)O)C(=O)O)C(=O)O)C(=O)N[C@@H](Cc1ccccc1)C(=O)N[C@H](C(=O)N[C@@H](CC(N)=O)C(=O)N[C@@H](Cc1c[nH]c2ccccc12)C(=O)N[C@@H](CC(C)C)C(=O)N[C@@H](CC(C)C)C(=O)N[C@@H](C)C(=O)N[C@@H](CCC(N)=O)C(=O)N[C@@H](CCCCN)C(=O)O)C(C)C
# B5: Compound 191 (peptide)
# peptide: YXEGTFTSDYSIYLDKQAAXEFVNWLLAGGPSSGAPPPSX
# modifications: not fully specified; no N-terminal group printed; Aib at 2, 20; Km = Lys(R) at 40, linker not given, lipid C16; C-terminal NH2
# B6: Compound 43 (peptide)
# peptide: Y[Aib]EGTFISDYSIALDR[Aib]AQ[Aib]NFVNWLLAQK([AEEA-γGlu-γGlu-γGlu-C15 diacid])
# modifications: not fully specified (residue 1, N-terminus); also: Me-Tyr methyl position not given here
# How the values were obtained:
# Test in all cases: cell-based or functional assay
# [1] = target: T1, full-length human GIPR with an …
# [2] = target: full-length human GLP-1R with an N-terminal FLAG tag (human, UniProt P43220 24-463)
# [3] = target: T2, full-length human GIPR with an …
Binder,"Human GIPR cAMP, HEK293T EC50 [1]",Human GLP1R cAMP HEK293T EC50 [2],"Human GIPR cAMP, HEK293T EC50 [3]"
[NMeY][Aib]EGTFISDYSIALDR[Aib]AQ[Aib]NFVNWLLAQK([G2E3-C15 diacid])PSSGAPPPS-OH [Compound 32],0.2 pM,4730 pM,–
[NMeY][Aib]EGTFISDYSIALDR[Aib]AQ[Aib]NFVNWLLAK([AEEA-AEEA-γGlu-C15 diacid])K-OH (not fully specified) [Compound 34],0.3 pM,117000 pM,–
[NMeY][Aib]EGTFISDYSIALDR[Aib]AQ[Aib]K([AEEA-γGlu-γGlu-γGlu-C15 diacid])FVNWLLA[Aib]K-OH (not fully specified) [Compound 45],0.3 pM,48400 pM,–
Me-Y[Aib]EGTFISDYSI[Aib]LDR[Aib]AQ[Aib]K([2OEG-γGlu-γGlu-C15 diacid])FVNWLLAQRG-OH [Compound 207],–,–,0.4 pM
B1,0.1 pM,60300 pM,–
B2,0.4 pM,112000 pM,–
[NMeY][Aib]EGTFISDYSIALDR[Aib]K([G2E3-C15 diacid])Q[Aib]NFVNWLLAQK-OH (not fully specified (N-terminus)) [Compound 42],0.6 pM,237000 pM,–
[NMeY][Aib]EGTFISDYSIAK([G2E3-C15 diacid])DR[Aib]AQ[Aib]NFVNWLLAQK-NH2 [Compound 30],0.1 pM,442000 pM,–
[NMeY][Aib]EGTFISDYSIALDR[Aib]AQ[Aib]K([AEEA-γGlu-γGlu-γGlu-C15 diacid])FVNWLL[Aib]QK-OH (not fully specified) [Compound 40],0.8 pM,115000 pM,–
[NMeY][Aib]EGTFISDYSIAK([AEEA-γGlu-γGlu-γGlu-C15 diacid])DR[Aib]AQ[Aib]NFVNWLL[Aib]QK-OH (not fully specified) [Compound 38],0.2 pM,525000 pM,–
[NMeY][Aib]EGTFISDYSIAK([AEEA-γGlu-γGlu-γGlu-C15 diacid])DR[Aib]AQ[Aib]NFVNWLLA[Aib]K-OH (not fully specified) [Compound 39],0.5 pM,398000 pM,–
[NMeY][Aib]EGTFISDYSIALDRK([AEEA-AEEA-γGlu-C15 diacid])HQ[Aib]NFVNWLLAQRPSSGAPPPS-OH (also: Me-Tyr methyl position not given here) [Compound 47],0.3 pM,110000 pM,–
[NMeY][Aib]EGTFTSDYSIYK([AEEA-AEEA-γGlu-C15 diacid])DR[Aib]AQ[Aib]NFVNWLLAQRPSSGAPPPS-OH (not fully specified) [Compound 46],0.2 pM,144 pM,–
B3,1 pM,25100 pM,–
B4,0.6 pM,145000 pM,–
"Me-Y[Aib]EGTFISDYSIALDR[Aib]AQ[Aib]KFVNWLLAQKG-OH (not fully specified (residues 1, 21)) [Compound 204]",–,–,0.8 pM
"Me-Y[Aib]EGTFISDYSI[Aib]LDR[Aib]AQ[Aib]KFVNWLLAQRG-OH (not fully specified (residues 1, 21)) [Compound 208]",–,–,0.3 pM
B5,–,–,4.9 pM
B6,0.3 pM,174000 pM,–
[NMeY][Aib]EGTFISDYSIALDRK([AEEA-AEEA-γGlu-C15 diacid])HQ[Aib]NFVNWLLAQS-OH (also: Me-Tyr methyl position not given here) [Compound 37],0.2 pM,43700 pM,–
[NMeY][Aib]EGTFISDYSIALDR[Aib]K([AEEA-γGlu-γGlu-γGlu-C15 diacid])Q[Aib]NFVNWLLAQK (not fully specified (N-terminus)) [Compound 44],0.4 pM,631000 pM,–
[NMeY][Aib]EGTFISDYSIALDR[Aib]AQ[Aib]K([G2E3-C15 diacid])FVNWLLAQK-NH2 [Compound 31],0.2 pM,776 pM,–
